Source: patent US20050256058A1
Numbered stars: 1 amine (or outer) side, 2 acyl side, 3 side chain; on linkers, the order of the positions; unused ones are H or OH. Square brackets hold non-standard residues; d marks the D form. * marks the point of attachment. AAsp = aza-Asp, O=C(N(CC(=O)[*:3])N[*:1])[*:2]; CH═CH‑CON(CH3)CH2Ph = CN(Cc1ccccc1)C(=O)/C=C/*; CH═CH‑COOCH2Ph = O=C(/C=C/*)OCc1ccccc1; CH:CH‑COOEt = CCOC(=O)/C=C/*; Cbz = O=C(OCc1ccccc1)*

T1: Caspase-3 (UniProt P42574)
T1 sequence (looked up): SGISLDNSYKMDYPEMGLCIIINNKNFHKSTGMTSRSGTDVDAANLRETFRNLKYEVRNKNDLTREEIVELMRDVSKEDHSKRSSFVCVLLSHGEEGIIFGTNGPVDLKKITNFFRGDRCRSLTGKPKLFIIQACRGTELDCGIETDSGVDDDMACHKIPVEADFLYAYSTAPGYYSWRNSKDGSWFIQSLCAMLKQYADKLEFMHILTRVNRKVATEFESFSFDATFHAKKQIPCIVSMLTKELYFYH

T2: Caspase-6 (UniProt P55212)
T2 sequence (looked up): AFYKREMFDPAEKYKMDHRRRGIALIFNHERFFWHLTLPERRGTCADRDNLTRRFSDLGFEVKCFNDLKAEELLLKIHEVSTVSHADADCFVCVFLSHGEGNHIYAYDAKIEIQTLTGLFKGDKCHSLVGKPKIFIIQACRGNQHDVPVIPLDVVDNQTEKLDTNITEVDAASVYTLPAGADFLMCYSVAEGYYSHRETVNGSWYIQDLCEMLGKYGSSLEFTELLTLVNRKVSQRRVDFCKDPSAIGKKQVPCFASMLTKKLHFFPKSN

T3: Caspase-7 (UniProt P55210)
T3 sequence (looked up): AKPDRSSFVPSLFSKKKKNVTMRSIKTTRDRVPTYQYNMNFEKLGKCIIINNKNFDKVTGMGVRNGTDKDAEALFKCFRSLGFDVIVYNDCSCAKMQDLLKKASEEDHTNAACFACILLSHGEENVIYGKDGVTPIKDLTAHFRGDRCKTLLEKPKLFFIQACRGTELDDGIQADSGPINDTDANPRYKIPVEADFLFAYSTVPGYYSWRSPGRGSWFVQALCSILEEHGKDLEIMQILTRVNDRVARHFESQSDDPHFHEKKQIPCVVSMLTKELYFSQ

T4: Caspase-10 (UniProt Q92851)
T4 sequence (looked up): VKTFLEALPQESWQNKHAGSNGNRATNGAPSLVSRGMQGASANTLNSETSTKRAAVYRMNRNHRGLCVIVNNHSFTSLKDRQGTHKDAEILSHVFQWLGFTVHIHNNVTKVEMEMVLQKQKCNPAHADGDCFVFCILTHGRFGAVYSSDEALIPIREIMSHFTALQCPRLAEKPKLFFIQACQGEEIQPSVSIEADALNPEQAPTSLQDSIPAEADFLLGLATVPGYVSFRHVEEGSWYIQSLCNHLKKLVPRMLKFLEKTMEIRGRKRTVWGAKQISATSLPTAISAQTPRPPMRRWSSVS

T5: Caspase-2 (UniProt P42575)
T5 sequence (looked up): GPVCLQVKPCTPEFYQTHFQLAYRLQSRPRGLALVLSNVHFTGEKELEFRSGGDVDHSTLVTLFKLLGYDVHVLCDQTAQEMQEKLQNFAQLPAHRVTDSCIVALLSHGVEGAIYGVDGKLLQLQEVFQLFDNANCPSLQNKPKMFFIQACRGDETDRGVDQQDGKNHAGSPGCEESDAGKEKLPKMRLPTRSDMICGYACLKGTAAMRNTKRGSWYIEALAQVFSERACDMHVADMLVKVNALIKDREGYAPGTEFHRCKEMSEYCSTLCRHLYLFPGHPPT

T6: Caspase-8, Q14790
T6 chain: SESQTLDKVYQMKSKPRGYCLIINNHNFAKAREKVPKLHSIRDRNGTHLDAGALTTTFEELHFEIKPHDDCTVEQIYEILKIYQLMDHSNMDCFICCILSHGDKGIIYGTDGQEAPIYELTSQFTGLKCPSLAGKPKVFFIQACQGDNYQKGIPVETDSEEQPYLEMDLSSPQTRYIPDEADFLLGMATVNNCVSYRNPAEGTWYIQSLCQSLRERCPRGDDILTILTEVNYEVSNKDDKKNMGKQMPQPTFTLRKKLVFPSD

T7: Caspase-10, Q92851
T7 chain: T4 sequence (looked up)

T8: Caspase-6, P55212
T8 chain: T2 sequence (looked up)

T9: calpain I from porcine erythrocytes (porcine), P35750
T9 chain: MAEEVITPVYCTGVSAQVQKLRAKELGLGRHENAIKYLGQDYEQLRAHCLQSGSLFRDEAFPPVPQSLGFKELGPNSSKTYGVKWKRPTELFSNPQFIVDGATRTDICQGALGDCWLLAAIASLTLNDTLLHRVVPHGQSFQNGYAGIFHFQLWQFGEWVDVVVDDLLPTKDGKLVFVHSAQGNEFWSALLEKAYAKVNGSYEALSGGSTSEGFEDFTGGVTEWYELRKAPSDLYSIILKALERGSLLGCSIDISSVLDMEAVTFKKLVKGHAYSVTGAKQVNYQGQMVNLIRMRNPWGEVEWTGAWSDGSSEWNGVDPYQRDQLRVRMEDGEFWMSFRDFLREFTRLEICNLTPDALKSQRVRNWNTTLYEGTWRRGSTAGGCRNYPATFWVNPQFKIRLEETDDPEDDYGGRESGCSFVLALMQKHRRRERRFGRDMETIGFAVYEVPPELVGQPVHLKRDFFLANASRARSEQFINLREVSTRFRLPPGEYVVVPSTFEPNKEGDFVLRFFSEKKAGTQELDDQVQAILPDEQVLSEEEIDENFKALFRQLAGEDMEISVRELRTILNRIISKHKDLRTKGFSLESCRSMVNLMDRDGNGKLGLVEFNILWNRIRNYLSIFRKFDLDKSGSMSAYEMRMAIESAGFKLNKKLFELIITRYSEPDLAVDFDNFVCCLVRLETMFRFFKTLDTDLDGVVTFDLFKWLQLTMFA

T10: Caspase-3, P42574
T10 chain: T1 sequence (looked up)

T11: Caspase-9, P55211
T11 chain: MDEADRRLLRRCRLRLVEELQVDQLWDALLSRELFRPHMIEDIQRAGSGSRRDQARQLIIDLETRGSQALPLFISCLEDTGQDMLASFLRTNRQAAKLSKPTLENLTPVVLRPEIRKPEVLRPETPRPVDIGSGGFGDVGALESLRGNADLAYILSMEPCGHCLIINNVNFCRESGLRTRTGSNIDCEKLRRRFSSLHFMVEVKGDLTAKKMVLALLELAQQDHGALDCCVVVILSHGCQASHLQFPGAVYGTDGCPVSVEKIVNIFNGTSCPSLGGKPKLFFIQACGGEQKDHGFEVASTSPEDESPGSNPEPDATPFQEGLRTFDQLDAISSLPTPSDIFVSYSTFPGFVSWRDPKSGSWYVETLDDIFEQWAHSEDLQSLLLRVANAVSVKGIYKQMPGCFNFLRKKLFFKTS

T12: Caspase-2, P42575
T12 chain: T5 sequence (looked up)

T13: Caspase-7, P55210
T13 chain: T3 sequence (looked up)

B1: Cbz-Val-Glu-Val-AAsp-CH═CH-COOEt (peptide)
peptide: Cbz-VEV[AAsp]-{CH:CH‑COOEt}
SMILES: CCOC(=O)/C=C/C(=O)N(CC(=O)O)NC(=O)[C@@H](NC(=O)[C@H](CCC(=O)O)NC(=O)[C@@H](NC(=O)OCc1ccccc1)C(C)C)C(C)C
B2: Cbz-Ile-Glu-Thr-AAsp-CH═CH-CON(CH3)CH2Ph (peptide)
peptide: Cbz-IET[AAsp]-{CH═CH‑CON(CH3)CH2Ph}
SMILES: CC[C@H](C)[C@H](NC(=O)OCc1ccccc1)C(=O)N[C@@H](CCC(=O)O)C(=O)N[C@H](C(=O)NN(CC(=O)O)C(=O)/C=C/C(=O)N(C)Cc1ccccc1)[C@@H](C)O
B3: Cbz-Ile-Glu-Thr-AAsp-CH═CH-COOCH2Ph (peptide)
peptide: Cbz-IET[AAsp]-{CH═CH‑COOCH2Ph}
SMILES: CC[C@H](C)[C@H](NC(=O)OCc1ccccc1)C(=O)N[C@@H](CCC(=O)O)C(=O)N[C@H](C(=O)NN(CC(=O)O)C(=O)/C=C/C(=O)OCc1ccccc1)[C@@H](C)O
B4: Cbz-Leu-Glu-Thr-AAsp-CH═CH-COOEt (peptide)
peptide: LETD
modifications: not checked
B5: Cbz-Asp-Glu-Val-AAsp-CH═CH-COOEt (trans) (peptide)
peptide: DEVD
modifications: not checked
B6: Cbz-Asp-Glu-Val-AAsp-CH═CH-CONHCH2Ph (peptide)
peptide: DEVD
modifications: not checked
B7: Cbz-Asp-Glu-Val-AAsp-CH═CH-COOCH2Ph (peptide)
peptide: DEVD
modifications: not checked

Target: T1, Caspase-3
Experiment: cell-based or functional assay

k2 [M⁻¹ s⁻¹] | Binder
41200 | B1
6000 | B2
2300 | B3

Target: T2, Caspase-6
Experiment: cell-based or functional assay

k2 [M⁻¹ s⁻¹] | Binder
83600 | B1
45900 | B2
23400 | B3

Target: Caspase-8 (UniProt Q14790)
Experiment: cell-based or functional assay

k2 [M⁻¹ s⁻¹] | Binder
176000 | B1
59700 | B2
148000 | B3

Target: Caspase-9 (UniProt P55211)
Experiment: cell-based or functional assay

k2 [M⁻¹ s⁻¹] | Binder
340 | B1
845 | B2

Target: T3, Caspase-7
Experiment: cell-based or functional assay

k2 [M⁻¹ s⁻¹] | Binder
3650 | B1
390 | B2
660 | B3

Target: T4, Caspase-10
Experiment: cell-based or functional assay

k2 [M⁻¹ s⁻¹] | Binder
6600 | B1
8500 | B2
15200 | B3

Target: T5, Caspase-2
Experiment: cell-based or functional assay

k2 [M⁻¹ s⁻¹] | Binder
115 | B1
95 | B2
110 | B3

Target: T6, Caspase-8, Q14790
Experiment: cell-based or functional assay

k2 [M⁻¹ s⁻¹] | Binder
237000 | B4
273000 | B5
78200 | B6
121000 | B7

Target: T7, Caspase-10, Q92851
Experiment: cell-based or functional assay

k2 [M⁻¹ s⁻¹] | Binder
49900 | B5
19400 | B6
28300 | B7

Target: T8, Caspase-6, P55212
Experiment: cell-based or functional assay

k2 [M⁻¹ s⁻¹] | Binder
18700 | B4
35600 | B5
3210 | B6
8470 | B7

Target: T9, calpain I from porcine erythrocytes …
Experiment: cell-based or functional assay

k2 [M⁻¹ s⁻¹] | Binder
< 10 | B4

Target: Cathepsin B
Experiment: cell-based or functional assay

k2 [M⁻¹ s⁻¹] | Binder
< 10 | B4

Target: T10, Caspase-3, P42574
Experiment: cell-based or functional assay

k2 [M⁻¹ s⁻¹] | Binder
5560 | B4
2.13e+06 | B5
1.75e+06 | B6
1.7e+06 | B7

Target: T11, Caspase-9, P55211
Experiment: cell-based or functional assay

k2 [M⁻¹ s⁻¹] | Binder
37 | B4
2010 | B6

Target: T12, Caspase-2, P42575
Experiment: cell-based or functional assay

k2 [M⁻¹ s⁻¹] | Binder
2640 | B5

Target: T13, Caspase-7, P55210
Experiment: cell-based or functional assay

k2 [M⁻¹ s⁻¹] | Binder
239000 | B5
249000 | B6
114000 | B7
